Patent US20110212094A1 (AbbVie / Abbott, published 2011)

T1: Recombinant Human SOST (human, UniProt Q9BQB4 24-213)
T1 construct: R&D reagent in Biacore; also called sclerostin; Human sclerostin (Abbott PR-1261069)
T1 sequence (looked up): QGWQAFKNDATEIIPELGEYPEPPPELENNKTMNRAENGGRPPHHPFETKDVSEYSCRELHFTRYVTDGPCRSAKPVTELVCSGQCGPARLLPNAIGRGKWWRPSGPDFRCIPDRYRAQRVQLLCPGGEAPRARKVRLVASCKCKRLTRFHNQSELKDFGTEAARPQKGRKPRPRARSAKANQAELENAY


Experiments:
[1] = target: T2, Recombinant Human TNF-α/TNFSF1A (human, UniProt P01375 77-233); test: Biacore SPR
T2 construct: Bought reagent for Biacore; also called huTNFα
T2 sequence (P01375 77-233 limits assumed): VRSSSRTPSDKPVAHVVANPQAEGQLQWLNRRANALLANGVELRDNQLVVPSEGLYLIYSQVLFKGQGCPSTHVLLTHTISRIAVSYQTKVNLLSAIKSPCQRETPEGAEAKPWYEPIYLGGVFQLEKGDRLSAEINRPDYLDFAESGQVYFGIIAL
Method: (§1) The BIACORE assay (Biacore, Inc, Piscataway, N.J.) determines the affinity of antibodies or DVD-Ig with kinetic measurements of on-rate and off-rate constants. Binding of antibodies or DVD-Ig to a target antigen (for example, a purified recombinant target antigen) is determined by surface plasmon resonance-based measurements with a Biacore® 1000 or 3000 instrument (Biacore® AB, Uppsala, Sweden) using running HBS-EP (10 mM HEPES [pH 7.4], 150 mM NaCl, 3 mM EDTA, and 0.005% surfactant P20) at 25° C. All chemicals are obtained from Biacore® AB (Uppsala, Sweden) or otherwise from a different source as described in the text. For example, approximately 5000 RU of goat anti-mouse IgG, (Fcγ), fragment specific polyclonal antibody (Pierce Biotechnology Inc, Rockford, Ill.) diluted in 10 mM sodium acetate (pH 4.5) is directly immobilized across a CM5 research grade biosensor chip using a standard amine coupling kit according to manufacturer's instructions and procedures at 25 μg/ml. Unreacted moieties on the biosensor surface are blocked with ethanolamine. Modified carboxymethyl dextran surface in flowcell 2 and 4 is used as a reaction surface. Unmodified carboxymethyl dextran without goat anti-mouse IgG in flow cell 1 and 3 is used as the reference surface. For kinetic analysis, rate equations derived from the 1:1 Langmuir binding model are fitted simultaneously to association and dissociation phases of all eight injections (using global fit analysis) with the use of Biaevaluation 4.0.1 software. Purified antibodies or DVD-Ig are diluted in HEPES-buffered saline for capture across goat anti-mouse IgG specific reaction surfaces. Antibodies or DVD-Ig to be captured as a ligand (25 μg/ml) are injected over reaction matrices at a flow rate of 5 μl/min. The association and dissociation rate constants, kₘ (M⁻¹s⁻¹) and koff (s⁻¹) are determined under a continuous flow rate of 25 μl/min. Rate constants are derived by making kinetic binding measurements at different antigen concentrations ranging from 10-200 nM. The equilibrium dissociation constant (M) of the reaction between antibodies or DVD-Igs and the target antigen is then calculated from the kinetic rate constants by the following formula: KD=koff/kₒₙ. Binding is recorded as a function of time and kinetic rate constants are calculated.

Recombinant Human SOST = target: T1, Recombinant Human SOST; test: Biacore SPR
Method: as §1

[2] = target: T2, Recombinant Human TNF-α/TNFSF1A; test: cell-based or functional assay

| Binder | Kd [1] [nM] | koff [1] [s⁻¹] | kon [1] [M⁻¹ s⁻¹] | Kd (Recombinant Human SOST) [nM] | koff (Recombinant Human SOST) [s⁻¹] | kon (Recombinant Human SOST) [M⁻¹ s⁻¹] | N-terminal VD TNFα Neutralization Assay EC50 nM (L929 cells) [2] [nM] | TNFα Neutralization Assay EC50 nM (L929 cells) [2] [nM] | C-terminal VD TNFα Neutralization Assay EC50 nM (L929 cells) [2] [nM] |
| --- | --- | --- | --- | --- | --- | --- | --- | --- | --- |
| AB215 (antibody, human IgG1, kappa, V domains shown, Parent anti-TNF antibody; also called AB215VH) VH: QVQLVESGGGVVQPGRSLRLSCAASGFTFSSYAMHWVRQAPGNGLEWVAFMSYDGSNKYAKDSVKGRFTISRDNSKNTLYLQMNSLRAEDTAVYYCARDRGIAAGGNYYYYGMDVWGQGTTVTVSS VL: EIVLTQSPATLSLSPGERATLSCRASQSVYSYLAWYQQKPGQAPRLLIYDASNRATGIPARFSGSGSGTDFTLTISSLEPEDFAVYYCQQRSNWPPFTFGPGTKVDIKR | 0.157 | 0.000272 | 1.74e+06 |  |  |  |  | 1.21 |  |
| AB218 (antibody, human IgG1, kappa, V domains shown, Parent anti-TNF antibody; also called AB218VH) VH: EVQLVESGGGLIQPGGSLRLSCAASGFTVSRNYMSWVRQAPGKGLEWVSVIYSGDRTYYADSVKGRFTISRDNSKNTLYLQMNSLRAEDTAVYYCARGEGGFDYWGQGTLVTVSS VL: EIVMTQSPATLSVSPGERATLSCRASQSVSSNLAWYQQKPGQAPRLLIHGASIRATGLPARFSGSGSGTEFTLTISSLQSEDFAVYYCQQYNYWWTFGQGTKVEIKR | 0.0288 | 5.15e-05 | 1.79e+06 |  |  |  |  | 0.0345 |  |
| DVD1229 (bispecific antibody, human IgG1, kappa, constant regions from vectors V1/V2; also called DVD1229H; DVD1229L) heavy: not shown light: DVQMIQSPSSLSASLGDIVTMTCQASQGTSINLNWFQQKPGKAPKLLIYGSSNLEDGVPSRFSGSRYGTDFTLTISSLEDEDLATYFCLQHSYLPYTFGGGTKLEIKRTVAAPDILLTQSPAILSVSPGERVSFSCRASQFVGSSIHWYQQRTNGSPRLLIKYASESMSGIPSRFSGSGSGTDFTLSINTVESEDIADYYCQESHSWPFTFGSGTNLEVKRTVAAPSVFIFPPSDEQLKSGTASVVCLLNNFYPREAKVQWKVDNALQSGNSQESVTEQDSKDSTYSLSSTLTLSKADYEKHKVYACEVTHQGLSSPVTKSFNRGEC | 3.6 | 0.000398 | 110000 | 0.0226 | 0.00019 | 8.43e+06 |  |  |  |
| DVD1230 (bispecific antibody, human IgG1, kappa, constant regions from vectors V1/V2; also called DVD1230H; DVD1230L) heavy: not shown light: EIVLTQSPATLSLSPGERATLSCRASQSVYSYLAWYQQKPGQAPRLLIYDASNRATGIPARFSGSGSGTDFTLTISSLEPEDFAVYYCQQRSNWPPFTFGPGTKVDIKRTVAAPDVQMIQSPSSLSASLGDIVTMTCQASQGTSINLNWFQQKPGKAPKLLIYGSSNLEDGVPSRFSGSRYGTDFTLTISSLEDEDLATYFCLQHSYLPYTFGGGTKLEIKRTVAAPSVFIFPPSDEQLKSGTASVVCLLNNFYPREAKVQWKVDNALQSGNSQESVTEQDSKDSTYSLSSTLTLSKADYEKHKVYACEVTHQGLSSPVTKSFNRGEC | 0.132 | 0.000223 | 1.69e+06 | 4.74 | 0.00029 | 61100 | 1.05 |  |  |
| AB214 (antibody, human IgG1, kappa, V domains shown, Parent anti-TNF antibody; also called AB214VH) VH: EVKLEESGGGLVQPGGSMKLSCVASGFIFSNHWMNWVRQSPEKGLEWVAEIRSKSINSATHYAESVKGRFTISRDDSKSAVYLQMTDLRTEDTGVYYCSRNYYGSTYDYWGQGTTLTVSS VL: DILLTQSPAILSVSPGERVSFSCRASQFVGSSIHWYQQRTNGSPRLLIKYASESMSGIPSRFSGSGSGTDFTLSINTVESEDIADYYCQESHSWPFTFGSGTNLEVKR | 0.107 | 0.000291 | 2.73e+06 |  |  |  |  | 0.04 |  |

The remaining lines, values ahead:

| Kd [1] [nM] | koff [1] [s⁻¹] | kon [1] [M⁻¹ s⁻¹] | Kd (Recombinant Human SOST) [nM] | koff (Recombinant Human SOST) [s⁻¹] | kon (Recombinant Human SOST) [M⁻¹ s⁻¹] | N-terminal VD TNFα Neutralization Assay EC50 nM (L929 cells) [2] [nM] | TNFα Neutralization Assay EC50 nM (L929 cells) [2] [nM] | C-terminal VD TNFα Neutralization Assay EC50 nM (L929 cells) [2] [nM] | Binder |
| --- | --- | --- | --- | --- | --- | --- | --- | --- | --- |
| 0.021 | 5.94e-05 | 2.83e+06 | 0.0546 | 0.00039 | 7.14e+06 | 0.006 |  |  | DVD1248 (bispecific antibody, human IgG1, kappa, constant regions from vectors V1/V2; also called DVD1248H; DVD1248L) heavy: not shown light: DIQMTQSPSSLSASVGDRVTITCRASQGIRIDLGWYQQKPGKAPKRLIYAASTLQSGVPSRFSGSGSGTEFIFTISSLQPEDFASYYCLQHKSYPLTFGGGTKVEIKRTVAAPDVQMIQSPSSLSASLGDIVTMTCQASQGTSINLNWFQQKPGKAPKLLIYGSSNLEDGVPSRFSGSRYGTDFTLTISSLEDEDLATYFCLQHSYLPYTFGGGTKLEIKRTVAAPSVFIFPPSDEQLKSGTASVVCLLNNFYPREAKVQWKVDNALQSGNSQESVTEQDSKDSTYSLSSTLTLSKADYEKHKVYACEVTHQGLSSPVTKSFNRGEC |
| 0.381 | 4.64e-05 | 122000 | 0.03 | 0.000211 | 7.05e+06 |  |  | 1.23 | DVD1227 (bispecific antibody, human IgG1, kappa, constant regions from vectors V1/V2; also called DVD1227H; DVD1227L) heavy: not shown light: DVQMIQSPSSLSASLGDIVTMTCQASQGTSINLNWFQQKPGKAPKLLIYGSSNLEDGVPSRFSGSRYGTDFTLTISSLEDEDLATYFCLQHSYLPYTFGGGTKLEIKRTVAAPDIVMTQSHKFMSTTVGDRVSITCKASQAVSSAVAWYQQKPGQSPKLLIYWASTRHTGVPDRFTGSGSVTDFTLTIHNLQAEDLALYYCQQHYSTPFTFGSGTKLEIKRTVAAPSVFIFPPSDEQLKSGTASVVCLLNNFYPREAKVQWKVDNALQSGNSQESVTEQDSKDSTYSLSSTLTLSKADYEKHKVYACEVTHQGLSSPVTKSFNRGEC |
| 0.0335 | 0.000108 | 3.23e+06 |  |  |  |  | 0.189 |  | AB213 (antibody, human IgG1, kappa, V domains shown, Parent anti-TNF antibody; also called AB213VH) VH: QVQLKESGPGLVAPSQSLSITCTVSGFSLTDYGVNWVRQPPGKGLEWLGMIWGDGSTDYDSTLKSRLSISKDNSKSQIFLKMNSLQTDDTARYYCAREWHHGPVAYWGQGTLVTVSA VL: DIVMTQSHKFMSTTVGDRVSITCKASQAVSSAVAWYQQKPGQSPKLLIYWASTRHTGVPDRFTGSGSVTDFTLTIHNLQAEDLALYYCQQHYSTPFTFGSGTKLEIKR |
| 0.0347 | 8.55e-05 | 2.46e+06 | 1.59 | 0.000365 | 230000 |  |  |  | DVD1256 (bispecific antibody, human IgG1, kappa, constant regions from vectors V1/V2; also called DVD1256H; DVD1256L) heavy: not shown light: EIVMTQSPATLSVSPGERATLSCRASQSVSSNLAWYQQKPGQAPRLLIHGASIRATGLPARFSGSGSGTEFTLTISSLQSEDFAVYYCQQYNYWWTFGQGTKVEIKRTVAAPDVQMIQSPSSLSASLGDIVTMTCQASQGTSINLNWFQQKPGKAPKLLIYGSSNLEDGVPSRFSGSRYGTDFTLTISSLEDEDLATYFCLQHSYLPYTFGGGTKLEIKRTVAAPSVFIFPPSDEQLKSGTASVVCLLNNFYPREAKVQWKVDNALQSGNSQESVTEQDSKDSTYSLSSTLTLSKADYEKHKVYACEVTHQGLSSPVTKSFNRGEC |
| 0.0272 | 5.04e-05 | 1.85e+06 |  |  |  |  | 0.212 |  | AB217 (antibody, human IgG1, kappa, V domains shown, Parent anti-TNF antibody; also called AB217VH) VH: QVQLVESGGGVVQPGRSLRLSCAASGFTFSSYDMHWVRQAPGKGLEWVAVIWSDGSIKYYADSVKGRFTISRDNSKNTLYLQMNSLRAEDTAVYYCAREVESAMGGFYYNGMDVWGQGTTVTVSS VL: DIQMTQSPSSLSASVGDRVTITCRASQGIRIDLGWYQQKPGKAPKRLIYAASTLQSGVPSRFSGSGSGTEFIFTISSLQPEDFASYYCLQHKSYPLTFGGGTKVEIKR |
|  |  |  | 0.0408 | 0.000396 | 9.68e+06 |  |  |  | AB022 (antibody, V domains shown, Parent anti-SOST antibody; also called SOST; AB022VH) VH: EVQLQQSGPELVTPGASVKISCKASGYTFTDHYMSWVKQSHGKSLEWIGDINPYSGETTYNQKFKGTATLTVDKSSSIAYMEIRGLTSEDSAVYYCARDDYDASPFAYWGQGTLVTVSA VL: DVQMIQSPSSLSASLGDIVTMTCQASQGTSINLNWFQQKPGKAPKLLIYGSSNLEDGVPSRFSGSRYGTDFTLTISSLEDEDLATYFCLQHSYLPYTFGGGTKLEIKR |
